Test: yeast display, Sf9 membrane polyspecificity reagent, FACS + sequencing; frameworks hold sequencing errors
Outline: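 Synthetic nanobody libraries on Saccharomyces cerevisiae BJ5465 were galactose-induced for 36–48 hours, stained 1 hour at 4 °C with 10% biotinylated, detergent-solubilized Sf9 membrane reagent and enriched on streptavidin microbeads. FACS then separated cells into low and high (top ~1%) gates by anti-HA (expression) and streptavidin (reagent binding) fluorescence. Genes were colony-PCR amplified, MiSeq 2 × 250 sequenced and CDR-length filtered. A clone's polyreactivity label is that of its gate of origin.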

| Sequence | polyreactivity (PSR sort gate) |
| --- | --- |
| QVQLVESGGGLLQAGGSLRLSCSASGSTFDDYAMGWYRQAPGKERELVAAIRWSGGSTYYADSVKGRFTISRDNAKNTVYLQMKSLKPEDTAVYYCNADGRRGRYDYWGQGTQVTVSS | low polyreactivity |
| QVQLVESGGGLLQAGGSLRLSFAASGSIVGPYGRGWYRQAPGKERELVAAISTVGGSTYYADSVKGRFTISRDNAKNTVYLQMNSLTPEDTAGYYCAKVPRYIELSRQATHSYDYWGHGTQVTVSS | low polyreactivity |
| QVQLVESGGGLLQAGGSLRLSSAASGIIFYAYAMGWYRQAPGKERELVAAITFSAVSTYYADSVKGRFTISRDNAKNTVYLQMNCLKPEDTAVYYCAAEAYKHGVWDYDYWGQGTQVTVSA | low polyreactivity |
| QVQLVESGGGLLQAGRSLRLSCAASGSTFRAYTMGWYRQAPGIERELVAAINSGGSTYYADSVKGRFTISRDNAKNTVYLQMNSLKAEDTAVYYCNRRFYRAVKYGYWGQGTQVTVSS | low polyreactivity |
| QVQLVESGGGLLQARGSLRLTCAASGIIFIKYAMGWYRQPPGKDRELVASSTSGGSTHYADSVKGRFTISRDNAKNTVYLQMNSLIPEETSVYYCNADILRHDAYFKDRYQAGSYWGLGTQVTVSS | low polyreactivity |
| QVQLVESGGGLVEAGGSLRLSCAASGINFWVNAMGWYRQAPGKERELVAAIRSDGSTKYADSVKGRFSSSRDNAKNTVYLQMNSLKPEDTAIYYCAKRDFSYPWLRDFYYWGQGTQVTVSS | low polyreactivity |
| QVQLVESGGGLVEAGGSLRLSCAASGRIFKYYAMGWYRQAPGKERELVAAISRGGSTYYADSVKGRFTISRDNAKNTVYLQMNSLKPEDTAVYFCAAVNGWRRVLRFDYWGQGTQVTVSS | high polyreactivity |
| QVQLVESGGGLVEAGGSLRLSCAASGRISQSNAMGWYRQAPGKESELVAAISWRGGSTYYADSVKGRFTISRDNAKNTVYLEMNSLKPEDTAVYYCGAKSWYAFYYRHPYDYWGQGTQVTVSS | high polyreactivity |
| QVQLVESGGGLVEAGGSLRLSCAASGRTFFKYTMGWYRQAPGKERELVSAITGSGASTYYADSVKGRFTISRDNAKNTVYLQMNSLKPEDTAVYYCAAVLTVKKGDKYGYWGQGTQVTVSS | high polyreactivity |
| QVQLVESGGGLVEAGGSLRLSCAASGSILIYVMGWYRQAPGKERDLFASITFSGGSTYYADSVKGRFTISRDNAKNSVYLQMYRLKPEVTAVYYCAAVPLWDYKFFYYLLYDYWGQGTQVTVSS | low polyreactivity |
| QVQLVESGGGLVEAGGSLRLSCAASGSTFRRYAMGWYRQAPVKERELVAAISTRGGSTYYADSVKGRFTISRDNAKNTVYLQMNSLKPEDTEVYYCAADPYYTLGYYYWGQGTQVTVSS | high polyreactivity |
| QVQLVESGGGLVEAGGSLRLSCAASGSTINYNAMGWYRQAPGKERELVAAIDSGVSTNYADSVNGRFTISRDNAKNTVYLQMNSLKPEDTAVYYCAVGGAGSDDYWGQRTQVTVSS | low polyreactivity |
| QVQLVESGGGLVEAGGSLSLSCAASGSTFYKYSMGLYRQAPGKESELVAAITGSGVSTYYADSVKGRFTMSRDNAKNTVYLQMNSLKPDDTAVYYCNAESRSRPYTSSYDYWGQGTQVTVSS | high polyreactivity |
| QVQLVESGGGLVEPGGSLRLSFASSGRTYQFYVMGWSRQAPGKERELVASIRSGGSTNYADSVKGRFTISRDNAKNTVYLLMNSLKPEDTALYYCAARVASPYYRYVYWGKGTQVTVSS | low polyreactivity |
| QVQLVESGGGLVHAGCSLRLSCDASGRIFKNYAMGWYRQAPGKERELVAAISWSGGRTYYADSVKGRFTISRDYAKNTVYLQMHRLKPEDTEVYYCATAARRGPTSIEPFGYGSWGQGTQVTVSS | high polyreactivity |
| QVQLVESGGGLVHAGGCLRLSFAASGFIFVVNPMGWYRPAPGKERELVAAINTSRGSTSYADSVKGRFTISRDNAKNTVYLQMNSVKPEDNAVYYCARDVWEKYRQSWGYVPLQGYDYCGQGTQVTVSS | low polyreactivity |
| QVQLVESGGGLVHAGGPLRLSCAASGGIFFSYAMGWYRQAPGKERELVAAIRTNGGTTYYADSVKGRFTISRDNAKNTVYLHMNSLKPEETAVYDCAALPGGYYDRGEYDYWGQGTQVTVSS | low polyreactivity |
| QVQLVESGGGLVHAGGRLRLSCAASGRTFVSYVMGWYRQAPGKERELVAAISGNGGRTYYADSVKGRFTISRDNAKNTVYLQMNSLKPEDTAVYYCAAELFVSYFDVLMYYWGQGTQVTVSS | high polyreactivity |
| QVQLVESGGGLVHAGGSIRLSCAASGSIFRLYAMGWYRQAPGKERELVATISQRGGRTYYADSVKGRFTISRDNAKNTVYLQMNILKPEVTAVYYCNADHYYPWLDYWGLGTQVTVSS | high polyreactivity |
| QVQLVESGGGLVHAGGSLRISCAASGRTFWVYAMGWYRKAPGKERELVAAISWSGGRTYYADSVKGRFTISRDNAKNTVYLQMNSLKPEDTAVYYCAATTGVRSRRYYYWGQGTQVTVSS | low polyreactivity |

| Sequence | polyreactivity (PSR sort gate) |
| --- | --- |
| QVQLVESGGGLVHAGGSLRLSCAAAGFTFTYYTMGWYRKAPGKERELVAAITENGGSTYYADSVKWRFTISRDNAKNTVYLQMKSLKPEDPAVYYCNARVWDYGGHGYDYWGQGTQVTVSS | low polyreactivity |
| QVQLVESGGGLVHAGGSLRLSCAASGFIFFSNAMGWYRQAPGKERELVATISTSSGSTYADSVKGRFTNSRDNAKNTVYLQMNSLKPEDTAVYYCAADTQGYDYDYWGQGTQVTVSS | low polyreactivity |
| QVQLVESGGGLVHAGGSLRLSCAASGFIFPYYAMGWYRQAPGKERELVAAITSGGSTNYADSVKGRFTISRDNAKNTVYLQMNSLKPEDTAVYYCAKRLKRWSVYGRYDYWGQGTQVTVSS | high polyreactivity |
| QVQLVESGGGLVHAGGSLRLSCAASGFIFYYYTMGWYRQAPGKEREFVAAISSSGTITYYADSVKGRFTISRDNAKNTVYLQMNSLKPEDTAVYYCNAELYYPYEFWRFSGYDYWGQGTQVTVSS | low polyreactivity |
| QVQLVESGGGLVHAGGSLRLSCAASGFSFNTYAMGWYRQAPGKERELVADISSGGSTNYADSVKGRFTISRDNAKNTVFLQMNSLKPEDTAVYYCSADYYFLDWYDYWGQGTQVSVSS | low polyreactivity |
| QVQLVESGGGLVHAGGSLRLSCAASGFTFYYNDMGWYRQAPGKERELVAAIRWSGGNTYYADSVKGRFKISRDNAKNTVYLQMNSLKPEDTAVYYCSAGTQWYSQVYIYYYWGQGTQVTVSS | low polyreactivity |
| QVQLVESGGGLVHAGGSLRLSCAASGGIYWYYAMGWYRQAPGKERELVAAISITDGSTYYADSVKGRFTISRDKAKNTVYLQMNSLKPEDTAVYYCAAEEEEYIYDYWGQGTQVTVSS | high polyreactivity |
| QVQLVESGGGLVHAGGSLRLSCAASGIIFVLHAMGWYRQAPGQERELVASISGIGGSTYYADSEKGRFTISRDNAKNTVYLQMNSLKPEDTAVYYCAARGWLSRYGYWGHGTQVTVSS | high polyreactivity |
| QVQLVESGGGLVHAGGSLRLSCAASGIIFYLYAMGWYRQAPGKERELVAAISRRGVSTYYADSVKGRFTISRDNAKNTVYLQMNSLKTEDTAVYYCAAAGFGYTGEEYWGQGTQVTVSS | high polyreactivity |
| QVQLVESGGGLVHAGGSLRLSCAASGINFFPYAMGWYRQAPGKERELVASINISDSSTYYADSVKGRFTISRDNAKNTVYLQMNSLKPEDTAVYYCAADNRGDSWYWHGYWGQGTQVSVSS | low polyreactivity |
| QVQLVESGGGLVHAGGSLRLSCAASGLTFAYNTMGWYRQAPGKEREFVASISSSGGNTYYADSVKGRFTISRDNAKNTVYVQMNSLKPEDTAVYFCAAKKKYHYVASYKRFEYWGQGTQVTVSS | low polyreactivity |
| QVQLVESGGGLVHAGGSLRLSCAASGRIFNYYAMGWYRQAPGKERALVAAISSGGSTYYADSEKGRFTISRDNAKNTVYLQMHSLKPEDTAVDYCNRVPRGVSRQDDYWGQGTQVTVSS | high polyreactivity |
| QVQLVESGGGLVHAGGSLRLSCAASGRIFPSYAMGWYRQAPGKERELVAAISYSGASTYYADSVKGRFTISRDNAKNTVYLQMNSLKPEDTAVYYCATDHESVRVLVSSTSDYDYWGQGTQVTVSS | low polyreactivity |
| QVQLVESGGGLVHAGGSLRLSCAASGRIFRRYAMGWYRQAPGKERELVASISSGGSTNYADSLKGRFTISRDNAKNTVYLQMNSLNPEDTAVYYCNVYYGYFRSRYCYWGQGTQVTVSS | high polyreactivity |
| QVQLVESGGGLVHAGGSLRLSCAASGRIFTIYAMGWYRQAPGKERELVAAISDRGTRTYYADSVKGRFTISRDNAKNTVYLQMNSLKPEETAVYYCATDALYTYGYDYWGQGTQVTVSS | low polyreactivity |
| QVQLVESGGGLVHAGGSLRLSCAASGRIFYQYAMGWYRQAPGKERELVAAIRYRDDGTYYADSVKGRLTISRDNAKNTVYLQMNSLKPEDTAVYYCAGKQWGRYGYWGQGTQVTVSS | high polyreactivity |
| QVQLVESGGGLVHAGGSLRLSCAASGRILVDYAMGWYRQAPGKERELVAAITSTGGTTYYADSVKGRFTISRDNAKNTVYLQMNSLKPEDTAVYYCAAKRQDSWGGTYGYWGQGTQVTVSS | low polyreactivity |
| QVQLVESGGGLVHAGGSLRLSCAASGRISFYYALGWYRQAPGKERALVATISRGDITYYADSVKGRFTISRDNAKNTVYLQLNSLKPEDTAVYYCNARNNYWWYGPGYVYWGQGTQVTVSS | low polyreactivity |
| QVQLVESGGGLVHAGGSLRLSCAASGRTFASYAIGWYRQAPGKERELVARISKSGGSTYYADSVKGRFTISRDNAKNTVYLQMNSLKPEDTAVYYCAATRYPYLYRSEVGSDYWGQGTQVTVSS | low polyreactivity |
| QVQLVESGGGLVHAGGSLRLSCAASGRTFIRYAMGWYIQAPGKERQLVAAISSSGGSTYYADSVKGRFTISRDNAKNTVYLQMNSLKPEDTAVYYCNAYVYYSHEDDYWGQGTQVTVSS | high polyreactivity |
